Test results published in patent publication US20240368668.
Residue numbers refer to the chain shown, from its start. Names and notes keep the numbering of the source.

How the values were obtained:
[1] = biological target: T1, purified recombinant human HA-tagged EFEMP1/Fibulin-3 (R&D, 8416-FB), Q12805
T1 chain: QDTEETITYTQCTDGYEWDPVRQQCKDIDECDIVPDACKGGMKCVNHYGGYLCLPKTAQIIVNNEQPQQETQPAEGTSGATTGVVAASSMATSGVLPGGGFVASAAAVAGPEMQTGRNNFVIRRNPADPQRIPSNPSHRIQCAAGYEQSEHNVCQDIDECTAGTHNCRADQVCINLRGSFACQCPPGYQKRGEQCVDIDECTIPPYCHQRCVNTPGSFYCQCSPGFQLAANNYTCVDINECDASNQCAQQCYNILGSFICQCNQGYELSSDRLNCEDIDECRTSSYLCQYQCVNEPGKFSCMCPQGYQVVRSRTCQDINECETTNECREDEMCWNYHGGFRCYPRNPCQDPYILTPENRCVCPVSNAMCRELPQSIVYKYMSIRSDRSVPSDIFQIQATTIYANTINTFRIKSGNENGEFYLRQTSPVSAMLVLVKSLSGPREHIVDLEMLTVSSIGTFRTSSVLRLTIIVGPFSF

[2] = biological target: Q68SA9
[3] = biological target: T2, endogenous EFEMP1 (EGF-containing fibulin-like extracellular matrix protein 1, Fibulin-3) secreted by HUVEC, Q12805
T2 chain: T1 chain

B1: purified full-length mouse ADAMTS7 S3A WT 3xFlag (protein)
chain: SVAKEKWVETLVVADSKMVEYHGQPQVESYVLTIMNMVAGLFHDPSIGNPIHISIVRLIILEDEEKDLKITHHAEETLKNFCRWQKNINIKGDDHPQHHDTAILLTRKDLCASMNQPCETLGLSHVSGLCHPQLSCSVSEDTGMPLAFTVAHELGHSFGIQHDGTGNDCESIGKRPFIMSPQLLYDRGIPLTWSRCSREYITRFLDRGWGLCLDDRPSKDVIALPSVLPGVLYDVNHQCRLQYGSHSAYCEDMDDVCHTLWCSVGTTCHSKLDAAVDGTSCGKNKWCLKGECVPEGFQPEAVDGGWSGWSAWSDCSRSCGVGVRSSERQCTQPVPKNRGKYCVGERKRSQLCNLPACPPDRPSFRHTQCSQFDGMLYKGKLHKWVPVPNDDNPCELHCRPSNSSNTEKLRDAVVDGTPCYQSRISRDICLNGICKNVGCDFVIDSGAEEDRCGVCRGDGSTCQTVSRTFKETEGQGYVDIGLIPAGAREILIEEVAEAANFLALRSEDPDKYFLNGGWTIQWNGDYRVAGTTFTYARKGNWENLTSPGPTSEPVWIQLLFQEKNPGVHYQYTIQRDSHDQVRPPEFSWHYGPWSKCTVTCGTGVQRQSLYCMERQAGVVAEEYCNTLNRPDERQRKCSEEPCPPRWWAGEWQPCSRSCGPEGLSRRAVFCIRSMGLDEQRALELSACEHLPRPLAETPCNRHVICPSTWGVGNWSQCSVTCGAGIRQRSVLCINNTDVPCDEAERPITETFCFLQPCQYPMYIVDTGASGSGSSSPELFNEVDFIPNQLAPRPSPASSPKPVSISNAIDEEELDPPGPVFVDDFYYDYNFINFHEDLSYGSFEEPHPDLVDNGGWTAPPHIRPTESPSDTPVPTAGALGAEAEDIQGSWSPSPLLSEASYSPPGLEQTSINPLANFLTEEDTPMGAPELGFPSLPWPPASVDDMMTPVGPGNPDELLVKEDEQSPPSTPWSDRNKLSTDGNPLGHTSPALPQSPIPTQPSPPSISPTQASPSPDVVEVSTGWNAAWDPVLEADLKPGHGELPSTVEVASPPLLPMATVPGIWGRDSPLEPGTPTFSSPELSSQHLKTLTMPGTLLLTVPTDLRSPGPSGQPQTPNLEGTQSPGLLPTPARETQTNSSKDPEVQPLQPSLEEDGDPADPLPARNASWQVGNWSQCSTTCGLGAIWRLVSCSSGNDEDCTLASRPQPARHCHLRPCAAWRTGNWSKCSRNCGGGSSTRDVQCVDTRDLRPLRPFHCQPGPTKPPNRQLCGTQPCLPWYTSSWRECSEACGGGEQQRLVTCPEPGLCEESLRPNNSRPCNTHPCTQWVVGPWGQCSAPCGGGVQRRLVRCVNTQTGLAEEDSDLCSHEAWPESSRPCATEDCELVEPPRCERDRLSFNFCETLRLLGRCQLPTIRAQCCRSCPPLSRGVPSRGHQRVARR
- in vitro cleavage, 4 hours at 37 C, western blot [1]: Full-length HA-EFEMP1 was detected at the expected position and a lower band was detected matching the predicted HA tagged amino terminus after cleavage by ADAMTS7 in the atypical first EGF domain
- auto-cleavage, peptide sequencing of the purified protein [2]: Peptide sequencing (Tufts University Core Facility) of the lower band or the total purified WT S3A protein identified a potential auto-cleavage site at F1062 (SYGS|FEEP)

B2: full-length mouse Adamts7 1-1857 E373Q catalytic mutant with a carboxyl terminal 3xFLAG tag, expressed from adenovirus (protein)
chain: B1 chain with A3S, E153Q
- cleavage of endogenous EFEMP1 in HUVEC media, mass spectrometry [3]: these sites were not detected in the Luc or EQ samples

B3: purified full-length mouse ADAMTS7 S3A EQ (catalytic mutant E373Q) (protein)
chain: B1 chain with E153Q
- in vitro cleavage, western blot and mass spectrometry of gel bands [1]: background cleavage under conditions with no enzyme or with ADAMTS7 S3A EQ treatment, however these occurrences were relatively minor compared to the activity stimulated by ADAMTS7 S3A WT

B4: full-length mouse Adamts7 1-1857 WT with a carboxyl terminal 3xFLAG tag, expressed from adenovirus (protein)
chain: B1 chain with A3S
- cleavage of endogenous EFEMP1 in HUVEC media, western blot and mass spectrometry [3]: identified semi-tryptic and semi-chymotryptic peptides indicating cleavage at 123.124 and 124.125 sites from the Ad-ADAMTS7 WT sample
- relative cleavage at 123.124 against 124.125 (TAILS log FC and total intensities) [3]: predicting 2-3 fold more cleavage at 123.124 (ASAA|AVAG) (SEQ ID NO: 1) compared to the adjacent 124.125 (SAAA|VAGP) (SEQ ID NO: 2) site
- auto-cleavage, western blot of HUVEC media [2]: ADAMTS7 WT migrated at two bands matching the observed autocleavage event in the mucin domain
